In assay [1] the target is FGFR4 expressed on the surface of RMS cells (Rh4-FR4 wt, Rh30) (human) (UniProt P22455). The assay is described as follows: flow cytometry, recombinant nanobody at 30 µg/ml on Rh4-FR4 wt cells, anti-6xHis-FITC detection; equals the background of the secondary antibody alone.
Assay [2] deals with Recombinant FGFR4 (G&P Biosciences) (human) (UniProt P22455). The assay can be described thus: SPR (BIAcore T200), single cycle kinetics, FGFR4 amine-immobilised (12'000 RU), negative control nanobody as analyte, heterogeneous ligand model, component 2 (KD2). (In general: In SPR one partner is held on a chip, and binding of the other changes the refractive index at the surface.)

Assay [3] has the same target. The assay is described as follows: SPR (BIAcore T200), single cycle kinetics, FGFR4 amine-immobilised (12'000 RU), negative control nanobody as analyte, heterogeneous ligand model, component 1 (koff1).
The target is the same in assay [4]. The assay can be described thus: SPR (BIAcore T200), single cycle kinetics, FGFR4 amine-immobilised (12'000 RU), negative control nanobody as analyte, heterogeneous ligand model, component 1 (kon1).
The target is the same in assay [5]. The assay can be described thus: SPR (BIAcore T200), single cycle kinetics, FGFR4 amine-immobilised (12'000 RU), negative control nanobody as analyte, heterogeneous ligand model, component 2 (koff2).
Assay [6] has the same target. The assay is described as follows: SPR (BIAcore T200), single cycle kinetics, FGFR4 amine-immobilised (12'000 RU), negative control nanobody as analyte, heterogeneous ligand model, component 1 (KD1).
The target is the same in assay [7]. The assay is described as follows: SPR (BIAcore T200), single cycle kinetics, FGFR4 amine-immobilised (12'000 RU), negative control nanobody as analyte, heterogeneous ligand model, component 2 (kon2).

Sequence of Recombinant FGFR4 (G&P Biosciences) (human) (P22455 22-369 limits assumed): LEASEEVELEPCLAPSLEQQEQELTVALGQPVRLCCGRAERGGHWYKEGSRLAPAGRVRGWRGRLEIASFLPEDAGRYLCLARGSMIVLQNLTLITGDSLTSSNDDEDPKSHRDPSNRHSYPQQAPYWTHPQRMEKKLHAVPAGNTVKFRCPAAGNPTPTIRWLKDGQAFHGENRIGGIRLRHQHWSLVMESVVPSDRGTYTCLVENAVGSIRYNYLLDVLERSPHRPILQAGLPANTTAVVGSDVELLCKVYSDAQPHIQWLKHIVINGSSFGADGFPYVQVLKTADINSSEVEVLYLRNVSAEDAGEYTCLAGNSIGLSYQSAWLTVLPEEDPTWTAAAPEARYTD
Sequence of FGFR4 expressed on the surface of RMS cells (Rh4-FR4 wt, Rh30) (human) (P22455 22-802 limits assumed): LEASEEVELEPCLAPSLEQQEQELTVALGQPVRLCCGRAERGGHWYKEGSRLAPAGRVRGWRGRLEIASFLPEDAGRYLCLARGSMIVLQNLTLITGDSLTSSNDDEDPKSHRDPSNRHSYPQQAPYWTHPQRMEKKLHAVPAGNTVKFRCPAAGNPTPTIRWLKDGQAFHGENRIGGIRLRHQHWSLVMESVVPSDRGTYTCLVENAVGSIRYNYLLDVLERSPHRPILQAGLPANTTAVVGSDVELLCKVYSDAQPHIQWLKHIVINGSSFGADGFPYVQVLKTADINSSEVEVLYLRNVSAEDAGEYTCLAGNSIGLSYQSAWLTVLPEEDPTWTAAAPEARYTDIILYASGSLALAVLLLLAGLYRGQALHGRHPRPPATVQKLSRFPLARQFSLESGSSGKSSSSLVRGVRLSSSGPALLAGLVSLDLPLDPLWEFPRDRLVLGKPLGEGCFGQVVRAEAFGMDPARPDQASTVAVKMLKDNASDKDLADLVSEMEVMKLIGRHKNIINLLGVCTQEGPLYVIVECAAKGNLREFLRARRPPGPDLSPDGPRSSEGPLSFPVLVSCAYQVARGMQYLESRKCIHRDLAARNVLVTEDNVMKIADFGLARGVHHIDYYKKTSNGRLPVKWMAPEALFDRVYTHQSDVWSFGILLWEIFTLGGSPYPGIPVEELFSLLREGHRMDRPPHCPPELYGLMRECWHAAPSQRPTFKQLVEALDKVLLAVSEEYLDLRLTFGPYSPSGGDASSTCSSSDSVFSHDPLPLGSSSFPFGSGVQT

For orientation: Kd means the equilibrium constant for the complex coming apart. By koff is commonly meant a measure of how fast the partners let go of each other. The kon is the rate constant with which the complex forms. With “anti-mCherry nanobody (negative control) (VHH)”, in assay [1], the median fluorescence intensity (MFI) came to 200 MFI. In addition, the Kd came to 2180 nM in assay [2] and 1960 nM in assay [6]. Besides, the koff in assay [3] was found to be 0.00511 s⁻¹; in assay [5] it was 0.00505 s⁻¹. The kon was determined as 2600 M⁻¹ s⁻¹ in assay [4] and 2320 M⁻¹ s⁻¹ in assay [7].
